Assay results taken from patent EP4659811A1.

B1: antibody C10P8 (antibody, V domains shown)
VH: QVQLQESGPGLVKPSQTLSLTCTVSGGSISSGRYYWSWIRQPAGKGLEWIGRVYFSGSTNYNPSLKNRVTLSVDTSKNQFSLKLSSVIAADTAVYYCARAVRDYGDSYSFDYWGQGTLVTVSS
VL: QSALTQPASVSGSPGQSITISCTGSSSDIGGYNYVSWYQVHPGKAPHLKIYDVVNRPSGVSNRFPGSKSGNTASLTISGLLADDEAYYYCCSYSIRGTPVFGGGTKLTVL
B2: antibody C4P7 (antibody, V domains shown)
VH: EVQLLESGGGLVQPGGSLRLSCAASGFTFSSYAMSWVRQAPGKGLEWVSSLTGSGGSTYYRDSVKGRFTIFRDNSKKTLYMQMNSLRAEDTAVYYCAKEGAYSYDFWYFDLWGRGTLVTVSS
VL: EIVLTQSPGTLSLSPGERATLSCRASQTVSGNYLAWYQQKPGQSPSLLIYGASSRATGIPDRFTGSGSGTDFTLTISRLEPADFAVYYCQQYGRPLTFGGGTKVEIK
B3: antibody E10P5 (antibody, V domains shown)
VH: QVQLQESGPGLVKPSQTLSLTCSVSGGSISSGNYYWSWIRQPAGKGLEWIGRIYTSGNTNYNPSLKSRVTMSVDTSKNQFSLKLSSVTATDTAVYYCARVRRDGYNAFDYWGQGTLVTVSS
VL: SYELTQPPSVSVSPGQTASIDCSGHNLGDKFTCWYQQKPGQSPVLVIYQDSKRPSGIPERFSGSNSGNTATLTISGTQAMDEADYYCQAWDSDTLYVFGTGTTVTVL
B4: antibody B7P3 (antibody, V domains shown)
VH: EVQLVESGGGVVQPGRSLRLSCAASGFTFSNFGMHWVRQPPGKGLEWVAVISYDGSDKFYADSVKGRFTISRDNFKNTLYVQMNSLRAEDTAVYYCAKDRVRTKYYYDHSGPFDYWGRGTLVTVSS
VL: SYVLTQPPSVSVAPGQTARIACGGNNIGSKSVHWYQQRPGQAPVLVVYDDDDRPSGIPERFSGSNSGNTATLTISRVEAGDEADYFCQVWMTNSDRPVFGGGTKLTVL
B5: antibody G7P3 (antibody, V domains shown)
VH: EVQLVESGGGLVQPGGSLRLSCAASGFSFGSYSMNWVRQAPGKGLEWVSHISSGSSSIYYADSVKGRFTISRDSVKNSLYLQMNNLRAEDTAVYYCARGWTGYDAFDIWGQGTMVTVSS
VL: DIQMTQSPSSLSASVGDRVTITCRASQVISNYLAWYQEKPGKVPKLLIYAASTLQSGVPSRFSGSGTGTDFTLTIRSLQPEDVATYYCQKYNNAPLTFGGGTKVEIK
B6: antibody E8P5 (antibody, V domains shown)
VH: EVQLVESGGGLVHPGGSLRLSCAASGFRFGTYSMNWVRQAPGKGLEWVSHISSGSSSIYYADSVKGRFTISRDSVKNSLYLQMNNLRAEDTAVYFCARGWTGYDAFDIWGQGTMVTVSS
VL: DIQMTQSPSSLSASVGDRVTITCRASQVISNYLAWYQEKPGEVPKLLIYAASTLQSGVPSRFSGSGTGTDFTLTISSLQPEDVATYYCQKYNNAPLTFGGGTKVEIK

Each binder was assayed against VP1 pentamer of BKV genotype IV (recombinant) (BK virus genotype IV), P14996 (assay: ELISA, coated VP1 pentamer). Conditions: remark: other sources report otherwise.
In the case of B1, the EC50 is reported as 10 µg/mL.

The binders below were run against VP1 pentamer of BKV genotype II (recombinant) (BK virus genotype II), P14996 (assay: ELISA, coated VP1 pentamer). Conditions: remark: other sources report otherwise.
B2 was tested, and the EC50 was 5 µg/mL.
B3 was tested, and the EC50 was 0.065 µg/mL.
Work on B4 yielded an EC50 of 5.5 µg/mL.
Binder B5 has an EC50 of 0.04 µg/mL.
In the case of B6, the EC50 is reported as 0.08 µg/mL.
